In patent publication US20260201045A1 (Regeneron, published 2026):

How the values were obtained:
[1] = target: T1, human CNTFR extracellular domain expressed with a C-terminal mouse IgG2a Fc tag (human); assay: SPR Biacore 4000, mAb captured by anti-human Fc, antigen injected, 37 C
T1 construct: also called hCNTFR-mFc; dimeric hCNTFR-mFc
T1 chain: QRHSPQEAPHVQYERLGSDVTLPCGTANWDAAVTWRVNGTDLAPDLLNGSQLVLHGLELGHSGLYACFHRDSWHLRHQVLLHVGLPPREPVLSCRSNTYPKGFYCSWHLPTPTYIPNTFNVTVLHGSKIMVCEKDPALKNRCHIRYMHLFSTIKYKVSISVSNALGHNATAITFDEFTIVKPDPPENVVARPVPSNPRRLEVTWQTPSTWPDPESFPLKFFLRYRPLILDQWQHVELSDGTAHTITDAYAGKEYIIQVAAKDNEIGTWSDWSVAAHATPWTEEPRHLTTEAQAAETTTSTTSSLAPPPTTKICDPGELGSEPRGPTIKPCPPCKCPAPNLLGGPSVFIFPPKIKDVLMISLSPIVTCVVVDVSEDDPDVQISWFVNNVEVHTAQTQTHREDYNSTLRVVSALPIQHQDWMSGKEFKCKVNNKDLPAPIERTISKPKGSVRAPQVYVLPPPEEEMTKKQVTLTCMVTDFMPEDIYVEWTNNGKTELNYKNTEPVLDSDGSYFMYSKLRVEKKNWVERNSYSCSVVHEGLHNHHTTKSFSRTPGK
Protocol: (§1) Equilibrium dissociation constants (KD) for CNTFR binding to purified anti-CNTFR monoclonal antibodies were determined using a real-time surface plasmon resonance (SPR) based Biacore 4000 biosensor. All binding studies were performed in 10 mM HEPES, 150 mM NaCl, 3 mM EDTA, and 0.05% v/v surfactant Tween-20, pH 7.4 (HBS-ET) running buffer at 25° C. and 37° C. The Biacore CM4 sensor surface was first derivatized by amine coupling with a monoclonal mouse anti-human Fc antibody (REGN2567) to capture anti-CNTFR monoclonal antibodies. Different concentrations of CNTFR reagents, human CNTFR extracellular domain expressed with a C-terminal myc-myc-hexahistidine tag (hCNTFR-mmh; SEQ ID NO:42), monkey CNTFR extracellular domain expressed with a C-terminal myc-myc-hexahistidine tag (mfCNTFR-mmh; SEQ ID NO:43), mouse CNTFR extracellular domain expressed with a C-terminal myc-myc-hexahistidine tag (mCNTFR-mmh; SEQ ID NO:44), and human CNTFR extracellular domain expressed with a C-terminal mouse IgG2a Fc tag (hCNTFR-mFc; SEQ ID NO: 45), at concentrations ranging from 6.25 nM to 100 nM in a series of 4-fold dilutions prepared in HBS-ET running buffer were injected at a flow rate of 30 μL/min for 2.5 minutes. The dissociation of different CNTFR reagents bound to anti-CNTFR monoclonal antibodies was monitored for 10 minutes in HBS-ET running buffer. At the end of each cycle, the anti-CNTFR monoclonal antibodies capture surface was regenerated using a 12 sec injection of 20 mM H3PO4. The association rate (ka) and dissociation rate (kd) were determined by fitting the real-time specific binding sensorgrams to a 1:1 binding model with mass transport limitation using Scrubber 2.0c curve-fitting software. Binding dissociation equilibrium constant (KD) and dissociative half-life (t½) were calculated from the kinetic rates as: […]

[2] = target: T2, mouse CNTFR extracellular domain expressed with a C-terminal myc-myc-hexahistidine tag (mouse, UniProt O88507 23-342); assay: SPR Biacore 4000, mAb captured by anti-human Fc, antigen injected, 25 C
T2 construct: The entry holds the tag as well; also called mCNTFR-mmh
Protocol: as §1

[3] = target: T1, human CNTFR extracellular domain …; assay: as above
Protocol: as §1

[4] = target: T3, full length mouse CNTFR (mCNTFR, amino acids 1-372, UniProtKB/Swiss-Prot Accession #088507) (mouse, UniProt O88507 23-342); assay: flow cytometry on HEK293/mCNTFR cells
T3 construct: whole, on cells; also called HEK293/mCNTFR
T3 sequence (looked up): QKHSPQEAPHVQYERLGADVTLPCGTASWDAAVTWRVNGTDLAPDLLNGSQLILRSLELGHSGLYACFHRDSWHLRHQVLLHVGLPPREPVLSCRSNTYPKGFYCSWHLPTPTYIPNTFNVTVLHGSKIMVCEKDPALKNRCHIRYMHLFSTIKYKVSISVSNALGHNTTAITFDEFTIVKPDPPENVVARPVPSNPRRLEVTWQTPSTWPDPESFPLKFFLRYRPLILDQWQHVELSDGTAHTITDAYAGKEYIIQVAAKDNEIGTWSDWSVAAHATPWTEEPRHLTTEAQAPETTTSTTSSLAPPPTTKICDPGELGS
Protocol: (§2) To assess binding of the anti-CNTFR antibodies to CNTFR receptors expressed on the cell surface, each of the HEK293/CNTFR cells listed above or HEK293 parental cells were diluted to 5×10⁵ cells/well in 96-well v-bottom plates. […] Cells were fixed using BD CytoFix™ (Becton Dickinson, #554655), filtered, and then analyzed on IQuePlus® Flow Cytometer (Intellicyt®). Geometric Mean Fluorescent Intensity (MFI) values were calculated by Forecyt Software and plotted in GraphPad Prism using a 4-parameter logistic equation over the 8-point dose-response curve to obtain EC₅₀ values. […] The secondary only condition was excluded from the EC₅₀ calculation.

[5] = target: T4, full length human CNTFR (hCNTFR, amino acids 1-372, UniProtKB/Swiss-Prot Accession #P26992) (human, UniProt P26992 23-342); assay: flow cytometry on HEK293/hCNTFR cells
T4 construct: also called HEK293/hCNTFR; CNTFR endogenously expressed on IMR-32/STAT3-luc cells
T4 sequence: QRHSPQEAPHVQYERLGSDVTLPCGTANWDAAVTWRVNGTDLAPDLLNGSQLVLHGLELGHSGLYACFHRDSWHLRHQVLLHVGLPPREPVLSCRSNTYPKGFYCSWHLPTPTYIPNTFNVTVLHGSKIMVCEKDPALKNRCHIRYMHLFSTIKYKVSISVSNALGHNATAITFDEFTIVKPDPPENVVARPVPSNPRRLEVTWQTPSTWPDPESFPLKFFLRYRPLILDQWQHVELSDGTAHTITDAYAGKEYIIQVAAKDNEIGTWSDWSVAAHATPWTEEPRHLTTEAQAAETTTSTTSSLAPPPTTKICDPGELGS
Protocol: as §2

[6] = target: T5, human CNTFR extracellular domain (Q23-V105)/mCNTFR (G106-S342) expressed with a C-terminal … (human/mouse chimera, UniProt P26992 23-342); assay: SPR Biacore S200, antigen captured by anti-myc, mAb injected, 25 C
T5 construct: Human/mouse chimeric CNTFR domain protein; also called hCNTFR (Q23-V105)/mCNTFR (G106-S342).mmh; hCNTFR (Q23-V105)_mCNTFR (G106-S342).mmh
T5 chain: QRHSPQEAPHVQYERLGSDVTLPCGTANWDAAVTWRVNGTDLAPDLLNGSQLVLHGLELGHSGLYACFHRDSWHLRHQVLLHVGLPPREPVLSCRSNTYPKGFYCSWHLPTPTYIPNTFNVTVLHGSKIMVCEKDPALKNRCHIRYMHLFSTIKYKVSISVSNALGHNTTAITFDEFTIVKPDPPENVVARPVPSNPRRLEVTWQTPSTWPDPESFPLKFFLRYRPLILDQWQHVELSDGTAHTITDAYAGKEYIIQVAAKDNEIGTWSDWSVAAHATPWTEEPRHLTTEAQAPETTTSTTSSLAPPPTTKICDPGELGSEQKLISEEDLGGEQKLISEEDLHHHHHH

[7] = target: T6, human CNTFR extracellular domain (Q23-D205)/mCNTFR (P206-S342) expressed with a C-terminal … (human/mouse chimera, UniProt P26992 23-342); assay: SPR Biacore S200, antigen captured by anti-myc, 100 nM mAb injected, 25 C
T6 construct: Human/mouse chimeric CNTFR domain protein; also called hCNTFR (Q23-D205)/mCNTFR (P206-S342).mmh; hCNTFR (Q23-D205)_mCNTFR(P206-S342).mmh

[8] = target: T7, human CNTFR extracellular domain expressed with a C-terminal myc-myc-hexahistidine tag (human, UniProt P26992 23-342); assay: as above
T7 construct: The entry holds the tag as well; also called hCNTFR-mmh; hCNTFR.mmh

[9] = target: T5, human CNTFR extracellular domain …; assay: as above

B1: mAb25311P2 (antibody, human IgG4 S228P, kappa, V domains shown)
VH: QVQLVESGGGVVQPGRSLRLSCVASGFTFSTSVMHWVRQAPGKGLEWVANIWYDGINKFYVDSVKGRFTISRDNSKNTLYLQMNSLRAEDTAVYYCAREFWSAFDLWGQGTMVTVSS
VL: not shown
For B1, the Kd [1] was 27.2 nM, the koff [1] was 0.000784 s⁻¹ and the kon [1] was 28800 M⁻¹ s⁻¹. For the same binder, the t½ [1] was 15 min, the binding result [2] was “no binding (tested: 100 nM)” and the Kd [3] was 7.22 nM. For the same binder, the koff [3] was 0.000125 s⁻¹, the kon [3] was 17300 M⁻¹ s⁻¹ and the t½ [3] was 93 min. For the same binder, the binding result [4] was “no binding (tested: 375 nM)”, the EC50 [5] was 4.33 nM and the “Max. Fold Binding” value [5] was 510 fold over secondary antibody alone. For the same binder, the binding result [6] was “no binding (tested: 100 nM)”, the “100 nM mAb Bound (RU)” value [7] was 89 RU and the “100 nM mAb Bound (RU)” value [8] was 80 RU. For the same binder, the “100 nM mAb Bound (RU)” value [9] was 1 RU.
